Test results: the supplement of paper PMC10724198
± gives the standard deviation of the averaged measurements.

Test system: Saccharomyces cerevisiae
Experiment: protein stability index of tFT-peptide fusion (C-terminal peptide) (PSI (0-1 scale)); higher = more stable (slower turnover)
Conditions: temperature: 30 C
Method: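 MPS profiling in S. cerevisiae of the yeast C-terminome library: the last 12 aa of each annotated ORF are fused to the C-terminus of a sfGFP-mCherry timer, after a GGGS linker. Cells are FACS-sorted into 8 mCherry/sfGFP bins and deep-sequenced. PSI runs from 0 (unstable) to 1 (stable); wild type and das1Δ backgrounds, two technical replicates each.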

[1] = genetic background: das1 deletion

Sequence | protein stability index [1] | protein stability index (genetic background: wild type)
VESKFTEKIKSM [RPC19 C-terminal 12 aa] | 0.6704 ± 0.0024 | 0.559 ± 0.027
WRQEYPGVDEFF [PRM8 C-terminal 12 aa] | 0.742 ± 0.0099 | 0.748 ± 0.045
YNINDLYKSLTR [MAK32 C-terminal 12 aa] | 0.7059 ± 0.0029 | 0.711 ± 0.023
DELSLRPATERI [YGR038C-E C-terminal 12 aa] | 0.739 ± 0.23 | 0.571
RGSEHYTKRKKI [UBS1 C-terminal 12 aa] | 0.687 ± 0.022 | 0.6822 ± 0.0035
LSKDGIYTAIPK [PAU15 C-terminal 12 aa] | 0.685 ± 0.025 | 0.767 ± 0.12
SVSYASGYVTIG [MHO1 C-terminal 12 aa] | 0.705 ± 0.034 | 0.64 ± 0.011
INKASVKFFFFA [YJL119C C-terminal 12 aa] | 0.637 ± 0.0095 | 0.227 ± 0.0039
GIILRSCWNPRQ [YOL159C-A C-terminal 12 aa] | 0.721 ± 0.019 | 0.69 ± 0.0087
LRRFIICQLHLI [YBR027C C-terminal 12 aa] | 0.523 ± 0.02 | 0.139 ± 0.0035
CRESNLKLIVSG [ARR2 C-terminal 12 aa] | 0.6753 ± 0.002 | 0.712 ± 0.016
NDTIFKLKVFKL [ILS1 C-terminal 12 aa] | 0.7346 ± 0.001 | 0.759 ± 0.099
DKLGFLDRRRNE [COI1 C-terminal 12 aa] | 0.683 ± 0.036 | 0.668 ± 0.043
AVSVPRISSPMH [ICS3 C-terminal 12 aa] | 0.7029 ± 0.0038 | 0.73 ± 0.028
KHKNILSFNNNT [YDR543C C-terminal 12 aa] | 0.687 ± 0.02 | 0.709 ± 0.041
ALDKYLIEIHHW [NPR3 C-terminal 12 aa] | 0.718 ± 0.041 | 0.728 ± 0.013
VILYRSVMKLSP [YOR073W-A C-terminal 12 aa] | 0.646 ± 0.011 | 0.66 ± 0.017
NRAKGKVVVKMK [YIM1 C-terminal 12 aa] | 0.69 ± 0.022 | 0.6976 ± 0.0037
VKDRPRGKDARL [RML2 C-terminal 12 aa] | 0.727 ± 0.058 | 0.805 ± 0.029
SGFFSSLKTMFN [PAR32 C-terminal 12 aa] | 0.719 ± 0.027 | 0.726 ± 0.058
PGGGGGSPLIFL [YHR165W-A C-terminal 12 aa] | 0.7299 ± 0.0012 | 0.728 ± 0.02

Sequence | protein stability index [1] | protein stability index (genetic background: wild type)
THKQYFWKKPAK [TOS4 C-terminal 12 aa] | 0.707 ± 0.03 | 0.688 ± 0.058
SDENIQPELRGQ [ABF1 C-terminal 12 aa] | 0.675 ± 0.018 | 0.723 ± 0.047
SMGNYYKSFFSM [OMA1 C-terminal 12 aa] | 0.704 ± 0.02 | 0.6294 ± 0.0025
GQTSRTVTPAPN [ITC1 C-terminal 12 aa] | 0.726 ± 0.026 | 0.6887 ± 0.0059
EGEISKGAENAT [YDR444W C-terminal 12 aa] | 0.676 ± 0.015 | 0.689 ± 0.011
SFFCRSSSKSSK [YSC83 C-terminal 12 aa] | 0.7232 ± 0.0053 | 0.724 ± 0.0074
YSISISLHTPCV [YHR049C-A C-terminal 12 aa] | 0.66 ± 0.013 | 0.632 ± 0.02
NQTSFSRDRLRR [RRD1 C-terminal 12 aa] | 0.702 ± 0.013 | 0.722 ± 0.066
GYKPIILYHVIH [YDL025W-A C-terminal 12 aa] | 0.691 ± 0.024 | 0.598 ± 0.025
RSTFLMHGRLAT [MAK3 C-terminal 12 aa] | 0.707 ± 0.02 | 0.702 ± 0.019
YIDDIDQTIPKY [UBA4 C-terminal 12 aa] | 0.7441 ± 0.0062 | 0.686 ± 0.0073
GWEVLSVYSFTR [MTQ2 C-terminal 12 aa] | 0.727 ± 0.042 | 0.737 ± 0.098
IDKFLDHIGKSQ [FBP1 C-terminal 12 aa] | 0.698 ± 0.025 | 0.703 ± 0.012
AAGVGSVHGINR [COY1 C-terminal 12 aa] | 0.7 ± 0.03 | 0.6645 ± 0.0066
ARTKRLVQFEAR [RPC10 C-terminal 12 aa] | 0.6826 ± 0.0044 | 0.7169 ± 0.007
NEKGNDDSDAKK [ILM1 C-terminal 12 aa] | 0.695 ± 0.041 | 0.685 ± 0.029
VDFLSKKLLKLR [YFL041W-A C-terminal 12 aa] | 0.694 ± 0.0088 | 0.708 ± 0.0078
GVETLLDIFMKF [ARG82 C-terminal 12 aa] | 0.74146 ± 0.00055 | 0.706 ± 0.02
FSFSIFFFFCLA [YFR035C C-terminal 12 aa] | 0.291 ± 0.017 | 0.285 ± 0.0066
KSADPDAMDTTE [RVB2 C-terminal 12 aa] | 0.702 ± 0.016 | 0.695 ± 0.021
DGGVKRIRVWGY [DAL2 C-terminal 12 aa] | 0.706 ± 0.024 | 0.703 ± 0.054

Sequence | protein stability index [1] | protein stability index (genetic background: wild type)
IKETIQRLTDDR [GMC2 C-terminal 12 aa] | 0.661 ± 0.018 | 0.676 ± 0.015
REAKNLPKPSFL [EDC1 C-terminal 12 aa] | 0.70153 ± 0.00024 | 0.698 ± 0.0091
LWNLSDNCKNTV [MMS1 C-terminal 12 aa] | 0.707 ± 0.02 | 0.7014 ± 0.0061
GYCFEFTLYNRK [DFR1 C-terminal 12 aa] | 0.7243 ± 0.0021 | 0.688 ± 0.013
ESFEKQGKIIYN [MOB2 C-terminal 12 aa] | 0.681 ± 0.0097 | 0.685 ± 0.042
FMKELEMSEESD [RAD4 C-terminal 12 aa] | 0.693 ± 0.015 | 0.738 ± 0.028
YILFFLFQLSIM [PEX35 C-terminal 12 aa] | 0.342 ± 0.02 | 0.369 ± 0.015
SASSTPSSTTMS [SPT20 C-terminal 12 aa] | 0.682 ± 0.0019 | 0.681 ± 0.011
TEPESDTEVETS [WHI5 C-terminal 12 aa] | 0.676 ± 0.01 | 0.662 ± 0.013
VADAMLDQGDVF [GDH3 C-terminal 12 aa] | 0.7137 ± 0.0052 | 0.6894 ± 0.0047
VSMKAIFSCMYV [YMR272W-B C-terminal 12 aa] | 0.6576 ± 0.0051 | 0.655 ± 0.034
KREKTMRNSMLP [YIR036W-A C-terminal 12 aa] | 0.684 ± 0.0091 | 0.736 ± 0.076
PMIWHLVKKQWK [TOM5 C-terminal 12 aa] | 0.686 ± 0.011 | 0.682 ± 0.052
EISNRDENSIPE [MUB1 C-terminal 12 aa] | 0.7214 ± 0.004 | 0.677 ± 0.026
IYIQTPINDFKS [SLM1 C-terminal 12 aa] | 0.705 ± 0.031 | 0.678 ± 0.013
LPSPRFFSPITL [YER158W-A C-terminal 12 aa] | 0.685 ± 0.024 | 0.702 ± 0.008
KLTSTVTLNLLY [YGR107W C-terminal 12 aa] | 0.692 ± 0.019 | 0.697 ± 0.029
GAVYFFSKARKA [COX26 C-terminal 12 aa] | 0.7207 ± 0.0023 | 0.654 ± 0.037
KELEPVPPVSKS [OMS1 C-terminal 12 aa] | 0.7006 ± 0.007 | 0.671 ± 0.01
QAKKSNSCCIIM [YKT6 C-terminal 12 aa] | 0.732 ± 0.034 | 0.766 ± 0.06
GALERKLHIDEN [MAM1 C-terminal 12 aa] | 0.6947 ± 0.0045 | 0.692 ± 0.046

Sequence | protein stability index [1] | protein stability index (genetic background: wild type)
AESDDKSDNYGA [PRP45 C-terminal 12 aa] | 0.689 ± 0.032 | 0.717 ± 0.036
HPFLLWQGQVFF [YCR022C C-terminal 12 aa] | 0.729 ± 0.012 | 0.6995 ± 0.0021
IKKYNITSPFLD [NSE4 C-terminal 12 aa] | 0.696 ± 0.022 | 0.686 ± 0.004
ISKLKGISKPSP [MDS3 C-terminal 12 aa] | 0.682 ± 0.014 | 0.687 ± 0.023
FDREDAMKKENK [DPH2 C-terminal 12 aa] | 0.692 ± 0.024 | 0.663 ± 0.059
SPTRKRPPPRLS [INN1 C-terminal 12 aa] | 0.726 ± 0.0049 | 0.722 ± 0.0076
KHQFLTKAKRFF [FET3 C-terminal 12 aa] | 0.693 ± 0.0079 | 0.7186 ± 0.0014
VVGFYFQGALSE [VNX1 C-terminal 12 aa] | 0.673 ± 0.025 | 0.708 ± 0.037
ETARNLAEYNGE [SEC72 C-terminal 12 aa] | 0.701 ± 0.013 | 0.728 ± 0.0056
MLGVGSLLFLAF [ROT1 C-terminal 12 aa] | 0.698 ± 0.03 | 0.691 ± 0.026
RQDNNHNGSSNG [MET32 C-terminal 12 aa] | 0.6936 ± 0.0016 | 0.706 ± 0.025
TLKKIFSKRSIS [YCL049C C-terminal 12 aa] | 0.722 ± 0.02 | 0.4651 ± 0.0019
FQSEYNISDILS [CEP3 C-terminal 12 aa] | 0.703 ± 0.0092 | 0.745 ± 0.023
DGEFVVSDLRLR [YOR283W C-terminal 12 aa] | 0.708 ± 0.0071 | 0.682 ± 0.015
VFLYRKRIFIKL [GWT1 C-terminal 12 aa] | 0.606 ± 0.021 | 0.485 ± 0.023
FGYESTDQILKL [NNR1 C-terminal 12 aa] | 0.738 ± 0.0047 | 0.708 ± 0.054
CSPVLFSLLNIA [LCB3 C-terminal 12 aa] | 0.699 ± 0.012 | 0.674 ± 0.087
DVKLLPPPKKRN [NUC1 C-terminal 12 aa] | 0.67982 ± 0.00038 | 0.6883 ± 0.0014
QMQQMAKQFGMG [SRP54 C-terminal 12 aa] | 0.6863 ± 0.0024 | 0.68513 ± 0.00031
